Laboratory results: IntAct's records for PubMed 19684601

B1: Myocyte-specific enhancer factor 2A (Homo sapiens), Q02078-1 (parent)
chain: MGRKKIQITRIMDERNRQVTFTKRKFGLMKKAYELSVLCDCEIALIIFNSSNKLFQYASTDMDKVLLKYTEYNEPHESRTNSDIVEALNKKEHRGCDSPDPDTSYVLTPHTEEKYKKINEEFDNMMRNHKIAPGLPPQNFSMSVTVPVTSPNALSYTNPGSSLVSPSLAASSTLTDSSMLSPPQTTLHRNVSPGAPQRPPSTGNAGGMLSTTDLTVPNGAGSSPVGNGFVNSRASPNLIGATGANSLGKVMPTKSPPPPGGGNLGMNSRKPDLRVVIPPSSKGMMPPLSEEEELELNTQRISSSQATQPLATPVVSVTTPSLPPQGLVYSAMPTAYNTDYSLTSADLSALQGFNSPGMLSLGQVSAWQQHHLGQAALSSLVAGGQLSQGSNLSINTNQNISIKSEPISPPRDRMTPSGFQQQQQQQQQQQPPPPPQPQPQPPQPQPRQEMGRSPVDSLSSSSSSYDGSDREDPRGDFHSPIVLGRPPNTEDRESPSVKRMRMDAWVT

Variants of: B1
Conditions: with sumo2_human SUMO2, P61956
Chain of sumo2_human SUMO2, P61956 (P61956 whole entry): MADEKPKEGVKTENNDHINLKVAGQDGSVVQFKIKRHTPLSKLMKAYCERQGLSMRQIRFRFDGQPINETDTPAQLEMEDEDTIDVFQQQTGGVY

Row | Variant | effect of a mutation on the interaction
1 | K403R | disrupting interaction
2 | S408A | disrupting interaction
